According to article PMC3514405:

Target: BLV nucleocapsid protein (NC) (Bovine leukemia virus, UniProt P03344)
Assay: ITC

Sequence of BLV nucleocapsid protein (NC) (P03344 324-392, tags left off): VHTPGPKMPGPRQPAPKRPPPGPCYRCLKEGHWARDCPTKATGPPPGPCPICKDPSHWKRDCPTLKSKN

## CAACUCUCUG (ssRNA) [SLV-VI linker (10 nt)]
  Kd: 92 ± 16 nM
